This data set relates to MS2 coat protein. In words: apparent KD of MS2 coat protein; designed switch direction (-1 OFF switch, 1 ON switch): -1; higher = weaker reporter binding. The essentials:
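Each step of the titration lasted 0.8–1.5 h at the lowest concentration and 10–20 min at the highest. The protein, SNAP-549-labelled MS2 coat protein, went from 0.7 or 1.5 nM doubling to 3 µM over RNA switches transcribed on Illumina chips by stalled E. coli RNA polymerase. Normalised cluster fluorescence was curve-fitted, and the per-design median over clusters is given as apparent KD.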

The mark [1] stands for this setting: input ligand: microRNA oligo, concentration not stated.
The mark [2] stands for this setting: Eterna round: R95, input ligand: FMN 200 uM.
[3] abbreviates: Eterna round: R95, input ligand: microRNA oligo, concentration not stated.
The mark [4] stands for this setting: Eterna round: R95, input ligand: none.

“GAACUGAGGCAAAGCUUUAGUCGUACAUGAGGAUCACCCAUGUAGGAUAUGGUAGGCUUUGCUUACCAGAAGGACAGAGUGAUC [Mat - Exclusion NG 3 - Mod of JL - D59] (Eterna round: R96, puzzle: Exclusion NG 3)”: the “apparent KD of MS2 coat protein” value under setting [1] was found to be 76.3 nM.
For the sequence “GAAGAAGAGAGAAUAGAAAACAUGAGGAUCACCCAUGUGAGAAGAUGAGGGUGUAAUAGGCUUUUUGCUCGUCUUAU (puzzle: Sensor v3, turn-off variant 1)”, the “apparent KD of MS2 coat protein” value under setting [2] came to 42.7 nM, the “apparent KD of MS2 coat protein” value under setting [3] was 94.4 nM and the “apparent KD of MS2 coat protein” value under setting [4] came to 56 nM.
For “GAAGAGACAGGAUAUACAUGAGGAUCACCCAUGUGAGGAGGUUGGAGGCGGAGGAGGUGUAGAAGGGUCAAAGA [JR_Exclu3_Sub021] (puzzle: Exclusion 3)”, the “apparent KD of MS2 coat protein” value was determined as 41.6 nM under setting [2], 29.7 nM under setting [3] and 38.8 nM under setting [4].
On the same counts, the results for “GAAGAGACAGGAUAUACAUGAGGAUCACCCAUGUGAGUAAGGUAGAGGCGGAGGAGAUGUAGAAGGGUCAAAGA [JR_Exclu3_Sub016] (puzzle: Exclusion 3)” are 49.9 nM, 35.6 nM and 41.5 nM.
On the same counts, the results for “GAAGAGACAGGAUAUACAUGAGGAUCACCCAUGUGAGUAUGUUAGAGGCGGAGGAGAUGUAGAAGGGUCAAAGA [JR_Exclu3_Sub017] (puzzle: Exclusion 3)” are 39.9 nM, 19.6 nM and 31.6 nM.
On to “GAAGCACAUGAGGAUCACCCAUGUGAGGAUAUCCGUCUGGUCCGGCCGGACCAGUACCGGAGAAGGCGCGUAAA [Excls1-Ia] (puzzle: Exclusion 1)”, for which the “apparent KD of MS2 coat protein” value under setting [3] was found to be 40.1 nM.
As to “GAAGUCGACUAGGAUAUUACAGGCUCAUGCCGUUGAGAAGGAGUGACAUGAGGAUCACCCAUGUCCUCAAGCGC [Eternabot (Original) Solution 48] (Eterna round: R97, puzzle: Exclusion 6)”, the “apparent KD of MS2 coat protein” value came out at 20.3 nM (input ligand: FMN 200 uM) and 16.2 nM (input ligand: none).
In the case of “GAAUAGAGAGGAUAUGCAAUGUAGGUAGUACGAUAUAUCUGACAUGAGGAUCACCCAUGUAGAAGGCUCAGAUC [EX2 #7] (Eterna round: R97, puzzle: Exclusion 2)”, the “apparent KD of MS2 coat protein” value (input ligand: FMN 200 uM) is 40.4 nM and the “apparent KD of MS2 coat protein” value (input ligand: none) stood at 37.9 nM.
On the same counts, the results for “GAAUGAGAGCAGGAUAUCUUAUAAAUGUAUGGAAGAGAAGGGCUCACAUGAGGAUCACCCAUGUGGUCCUAGAU [jl-ex6-4.70 jandersonlee mod] (Eterna round: R97, puzzle: Exclusion 6)” are 215 nM and 36.5 nM.
On the same counts, the results for “GAAUUAAUUAAUUAAUAAUACAUGAGGAUCACCCAUGUAGAUCCUACAUACAAGCUUUGUAGCUCGUCUUAUAAUUA [Stov1/3-A2] (Eterna round: R97, puzzle: Sensor, turn-off variant 1)” are 330 nM and 480 nM.
On the same counts, the results for “GACAUCGCAGGAUAUUAGAGUUUUUACAUGAGGAUCACCCAUGUUAAUUGGGUUAAUGUCUAAGAAGGGCGAUGUC [JR_EX5_Sub015] (Eterna round: R97, puzzle: Exclusion 5)” are 113 nM and 49.4 nM.
On to “GACCGGGCAGGAUAUACAAAACCUCGGUGUAUUUUGGACCGACAUGAGGAUCACCCAUGUAGAAGGGCCUAAGG [Eternabot (Original) Solution 4] (Eterna round: R97, puzzle: Exclusion 2)”, for which the “apparent KD of MS2 coat protein” value worked out at 34.2 nM (input ligand: FMN 200 uM) and 23.6 nM (input ligand: none).
As for “GACUAAACACGAGGAUAUGCCUGGGAAGAACAGGCAGAAGGCGUGACAUGAGGAUCACCCAUGUAGCCGGGCUAUUCUCGUACG [Tirearerar] (Eterna round: R96, puzzle: Exclusion NG 1)”, the “apparent KD of MS2 coat protein” value reads like this: (input ligand: FMN 200 uM) 30.8 nM; under setting [1], 24.7 nM; (input ligand: none) 30.3 nM.

(Values after the supplement of paper PMC9170038.)
